In US20070042500A1, “Direct observation of molecular modifications in biological test systems by measuring flourescence lifetime” (Bayer Healthcare AG, priority 2003, published 2007):

Tests used:
[1] = target: PDE1b phosphodiesterase (Homo sapiens, UniProt Q01064); assay: PDE reaction with Fl-cAMP followed directly by fluorescence lifetime; type: biochemical; settings: without inhibitor
Description: Like the phosphatases and kinases discussed above, phosphodiesterases are a very important class of targets, inter alia in the fields of indication of cardiovascular, metabolic disorders, central nervous system, cancer and respiratory diseases. It is therefore of great interest to have a generic assay format which can measure the conversion of cAMP or cGMP to the respective monophosphate. Usually detection enzyme cascades are used. […] In the experiment, first 1 μM Fl-cAMP and a 1:360 dilution of PDE1b were mixed in the presence of different concentrations of the inhibitor BAY 383045. The kinetics of the enzyme reaction was measured by means of an Ultra FLT prototype (Tecan) at room temperature.

[2] = FLT of potential reactant and product of the TAFI enzyme reaction; type: physicochemical; settings: 60 nM; independent of pH (6-9.5) and NaCl concentration (200 mM, 2 M)
Description: The enzyme thrombin activated with fibrinolysis inhibitor (TAFI) is a carboxypeptidase which plays an important part in thromboses. TAFI cleaves the arginine of the peptide sequence IFTR. This reaction may be detected by either mass spectrometric or chromatographic methods. Both methods are not suitable for high throughput substance testing. Alternatively, more or less complex enzyme cascades or chemical reactions may be used which generate a measurable absorption, fluorescence or luminescence signal. No method has been described to date with which the TAFI reaction can be measured directly and which is suitable at the same time for higher throughput. Therefore, the fluorescence lifetimes of the conjugates FJ23 and FJ24 which both carry a fluorescent dye excitable at 630 nm (Evoblue30, Mobitec) and which differ only in the FJ24 conjugate lacking the C-terminal arginine were measured. FJ23 is a potential reactant of the TAFI reaction, while FJ24 would be the corresponding reaction product. The FJ23 and FJ24 conjugates were dissolved at a concentration of 60 nM in various buffers with pH values of 6, 7, 8 and 9.5, and in the presence of 200 mM and 2 M NaCl.

[3] = FLT difference between phosphorylated and non-phosphorylated fluoresceine-kemptide under various pH/NaCl conditions; type: physicochemical; settings: 50 nM; pH 6.0 to 9.5 buffers
Description: 0.1 M NaOH, 50 mM borate buffer pH 9.5, 50 mM HEPES buffer pH 8.0, 50 mM HEPES buffer pH 7.0, 50 mM MES buffer pH 6.0, 200 mM NaCl (low)
The quality of an FLT assay improves with increasing differences of the fluorescence lifetimes of reactant and product. An optimally large FLT difference will not be measured immediately in every case. On the other hand, it should be possible to increase the FLT difference initially obtained, for example by selecting and combining various parameters such as, for example, fluorescent dye, spacer molecule between dye and substrate molecule, or polarity, pH, ionic strength of the solvent or other additive. […] In each case 50 nM Fl-P-kemptide and Fl-kemptide were dissolved in the solutions described under Material, and their FLTs were measured by means of a modified Nanoscan instrument (IOM GmbH, Berlin, Germany) which transferred the signals to a transient recorder. 16 decay curves were averaged for each data point. The descending part of the logarithmic-scale curve was evaluated by means of linear regression and the negative slope was mathematically converted into FLT.

[4] = Fluorescence lifetime (FLT) of phosphorylated vs non-phosphorylated fluoresceine-peptide conjugate, Ultra FLT prototype (Tecan); type: physicochemical; settings: 10 nM in 50 mM HEPES pH 7.5; mean of 10 measurements of 1 s
Description: It was intended to investigate whether there is a difference between the fluorescence lifetimes (FLTs) of the fluoresceine-peptide conjugates Fl-P1 and Fl-1. For this purpose, in each case 10 nM Fl-P1 and Fl-1 were dissolved in 50 mM HEPES pH 7.5. The fluorescence lifetimes (FLTs) were measured by means of an Ultra FLT prototype (Tecan). In each case, 10 measurements of 1 s each were averaged.

PDE1b phosphodiesterase, sequence (Q01064 whole entry): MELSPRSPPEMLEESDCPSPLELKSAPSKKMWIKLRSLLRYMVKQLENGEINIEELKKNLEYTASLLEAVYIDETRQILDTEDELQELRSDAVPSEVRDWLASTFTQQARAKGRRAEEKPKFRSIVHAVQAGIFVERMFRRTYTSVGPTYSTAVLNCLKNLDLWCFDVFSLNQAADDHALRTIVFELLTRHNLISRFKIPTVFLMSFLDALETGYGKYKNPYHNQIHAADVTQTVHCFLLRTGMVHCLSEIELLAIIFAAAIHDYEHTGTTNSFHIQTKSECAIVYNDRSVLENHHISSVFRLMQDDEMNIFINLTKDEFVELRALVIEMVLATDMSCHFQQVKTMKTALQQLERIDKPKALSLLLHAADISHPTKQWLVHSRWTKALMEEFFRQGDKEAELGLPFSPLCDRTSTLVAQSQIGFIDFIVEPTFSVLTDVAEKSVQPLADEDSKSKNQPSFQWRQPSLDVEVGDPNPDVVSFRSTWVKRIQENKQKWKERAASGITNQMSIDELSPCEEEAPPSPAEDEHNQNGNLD

Compound | differentiation of phosphorylated and non-phosphorylated form by means of FLT [3] | fluorescence lifetime (FLT) [4] [ps] | other results
Nc1ncnc2c1nc(SCCNC(=S)Nc1ccc(-c3c4ccc(=O)cc-4oc4cc(O)ccc34)c(C(=O)O)c1)n2C1OC2COP(=O)(O)OC2C1O (stereo not shown) [Fl-cAMP, 8-fluo-cAMP] |  |  | fluorescence lifetime at start of PDE1b reaction ([1]; 1 μM Fl-cAMP, start of reaction): approx. 3500 ps; fluorescence lifetime after PDE1b reaction (conversion to Fl-AMP) ([1]; within 100 minutes of reaction): approx. 3350 ps
Evoblue30-Ttds(Spacer)-IFTR-COOH [FJ24] |  |  | fluorescence lifetime [2]: 2194±18 ps
fluoresceine-C6-LRRASLGCONH2 [Fl-kemptide] | improves when the pH increases from 6.0 to 9.5 |  | 
fluoresceine-C6-LRRApSLGCONH2 [Fl-P-kemptide] | improves when the pH increases from 6.0 to 9.5 |  | 
fluoresceine-C6-TEGQYQPQP-COOH ({fluorescein-C6}-TEGQYQPQP-OH) [Fl-1] |  | 3600 | 
fluoresceine-C6-TEGQYpQPQP-COOH [Fl-P1] |  | 3880 | 
